According to US20090123934A1 (published 2009):
Where a chain is given by its changes, count along the chain named.

Legend:
[1] = target: wildtype PoloBD-fusion protein (Drosophila melanogaster) (UniProt P52304); assay: yeast two-hybrid, serial dilutions
[2] = target: T1, HA-Polo (Drosophila melanogaster, UniProt P52304 1-576); assay: purified Flag-Mtrm incubated with HA-Polo, immunoprecipitated with anti-Mtrm antibody, anti-HA Western blot (FIG. 18)
T1 construct: Expressed with baculovirus in Sf9 cells; also called Polo with a 2XHA tag at the N-terminus; not shown: N-terminal 2XHA tag
T1 sequence (looked up): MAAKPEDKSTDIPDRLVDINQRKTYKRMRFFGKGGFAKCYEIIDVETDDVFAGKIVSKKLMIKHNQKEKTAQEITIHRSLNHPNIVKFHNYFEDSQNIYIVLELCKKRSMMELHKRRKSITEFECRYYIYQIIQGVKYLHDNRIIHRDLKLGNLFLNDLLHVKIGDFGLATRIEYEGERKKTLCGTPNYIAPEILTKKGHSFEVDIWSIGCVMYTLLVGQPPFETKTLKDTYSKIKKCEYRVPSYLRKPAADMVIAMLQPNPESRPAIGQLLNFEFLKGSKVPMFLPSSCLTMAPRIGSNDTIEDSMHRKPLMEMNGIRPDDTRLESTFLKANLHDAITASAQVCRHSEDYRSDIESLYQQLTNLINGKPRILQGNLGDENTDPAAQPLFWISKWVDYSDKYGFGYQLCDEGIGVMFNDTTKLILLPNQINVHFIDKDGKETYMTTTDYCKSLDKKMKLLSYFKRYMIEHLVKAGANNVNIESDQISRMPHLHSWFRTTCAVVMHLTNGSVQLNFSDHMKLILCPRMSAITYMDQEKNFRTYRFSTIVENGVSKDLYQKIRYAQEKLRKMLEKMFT
Protocol: Protein from affinity-purified Flag-Mtrm and HA-Polo was used for an in vitro binding experiment. 50 μg Flag-Mtrm was mixed with the same amount of HA-Polo in 60 μl of the above buffer and incubated for 1 hr at 30° C. As a control, 50 μg HA-Polo in 60 μl was also incubated. After incubation, both protein samples were immunoprecipitated using 50 μl protein A agarose beads coated with anti-Mtrm antibody (from guinea pig) for 1 hr at 4° C. The agarose beads were washed 6 times with the above protein buffer.
For Western blotting, the beads were suspended in 40 μl of SDS loading buffer (50 mM Tris-HCl (pH 6.8), 100 mM DTT, 2% SDS, 0.1% bromophenol blue, 10% glycerol) and heated for 3 min at 95° C. before being loaded on a PAGE gel. Western blotting for HA-Polo was conducted using anti-HA antibody from mouse and an Alkaline Phosphatase chromogen kit (BCIP/NBT) (Roche). (FIG. 18).

[3] = target: T2, Polo kinase (Polo) (Drosophila melanogaster, UniProt P52304 1-576, T182 detected as phosphorylated (over 80%) in Polo bound to Mtrm); assay: anti-FLAG affinity purification from ovarian extracts, MudPIT mass spectrometry, three replicates
T2 construct: Endogenous Polo in ovary extracts; also called polo (FBgn0003124)
T2 sequence (looked up): T1 sequence (looked up)
Description: We analyzed three independent affinity purifications from ovarian extracts expressing a C-terminally 3×FLAG-tagged Mtrm and used MudPIT mass spectrometry to identify interacting proteins. We then compared the identified proteins to those detected in five control FLAG immuno-precipitations from control (w¹¹¹⁸) flies.
In order to prepare a C-terminally 3×FLAG-tagged Mtrm for the MudPIT mass spectrometry assay, the UASP-mtrm-Flag (3×) construct was expressed in ovaries under the control of the nanos-GAL4 driver in a wild-type background. The extraction of protein from the ovaries was the same as described above. 100 μl of anti-FLAG beads were washed 2 times with pre-chilled 1×PBS and then 2 times with pre-chilled ovary extract buffer. The anti-FLAG beads were mixed with the extract supernatant, incubated and washed as described above. After washing, the beads bound with Mtrm-FLAG (3×) were finally transferred to a mini-column and washed with 25 ml of TBS (50 mM Tris-HCl, pH 7.4, 150 mM NaCl) at 4° C. When washing was completed, 300 μl TBS with 100 μg/ml 3×FLAG peptide was added to elute proteins. TCA was added to the eluted protein solution at a final concentration of 20%. The solution was mixed and kept on ice for at least 30 minutes. The solution was centrifuged at 14000 rpm at 4° C. for 15 minutes. […] The pellet was air dried and ready for the Mud PIT spectrometry analysis.

[4] = target: T2, Polo kinase (Polo); assay: co-immunoprecipitation, ovary extracts
Protocol: To prepare the ovary extract for immunoprecipitation, ovaries from 100 yeast-fed female flies were dissected in 1×PBS. The ovaries were homogenized in an Eppendorf tube at 4° C. by a small pestle in 0.5 ml of ovary extract buffer containing 25 mM Hepes (pH 6.8), 50 mM KCl, 1 mM MgCl₂, 1 mM DTT and 125 mM sucrose with protease inhibitors cocktail (Calbiochem). The extract was centrifuged at 14000×g for 15 minutes at 4° C. and the supernatant was collected.
Protein A agarose beads were used for binding polyclonal antibodies from rabbit and guinea pig. Protein G agarose beads were used for binding monoclonal antibody from mouse. 50 ul of protein A or G-coated agarose was washed three times with PBST (PBS+0.1% Triton X-100). 10 ul of antibody was added to the beads in a final volume of 500 ul of PBS and mixed on a shaker for 1 hour at 4° C. The beads then were washed twice with PBST. The ovary extract was immunoprecipitated with the beads for 1 hour at 4° C. with continual shaking. After recovery by centrifugation at 1000×g for 3 minutes, the beads were washed 4 times with the cold ovary extract buffer with protease inhibitors, for 5 minutes each. For Western blotting, the beads were suspended in 30 μl of SDS loading buffer (50 mM Tris-HCl (pH 6.8), 100 mM DTT, 2% SDS, 0.1% bromophenol blue, 10% glycerol) and heated for 3 minutes at 95° C. before being loaded on a PAGE gel. […]

What does the source list for “MtrmT(40)A mutant MtrmAD-fusion protein (from UniProt Q23973 1-217)”?
colonies at the third serial dilution [1]: 1 colonies; colonies following the first serial dilution [1]: 7 colonies

B1: Flag-Mtrm (other)
chain: MENSRTPTNKTKITLNRTPTLKERRWNTLKVNTSNVRCSTPIFGNFRSPNLSPIENMGTKGKSPVSPMRFATFKKVPTKVHPKQQQQQQHQHCHRTQLKPPPFVLPKPQEEIIEPEREIKSCSSPDTCSDDSNMETSLALESRRRSIKASNHSYVVNHAANVEQILMHMGLENYVTNFEEAHIDLVELASLERADLVKIGLNTDEDCNRIMDVLHTL
notes: Expressed with baculovirus in Sf9 cells; also called Mtrm with a Flag tag at the N-terminus; not shown: N-terminal Flag tag
Does B1 bind [2]?
Result: binds

B2: C-terminally 3×FLAG-tagged Mtrm (other)
chain: B1 chain
modifications: phosphorylation detected on T40, S124 (less reproducibly), S48, S52 and S137
notes: Expressed in ovaries under nanos-GAL4 in a wild-type background; purified on anti-FLAG beads for MudPIT; also called Mtrm-Flag(3×); Mtrm-FLAG (3×); not shown: C-terminal 3×FLAG tag
B2 was tested. Which “ratio between the two proteins (NSAF)” value [3] did it give?
The value was 0.96 ratio of NSAF values.

B3: Mtrm with both PBD binding sites mutated (T(40)A and S(124)A) (other)
chain: B1 chain with T40A, S124A
Does B3 bind [4]?
Result: no binding
